Laboratory results taken from patent publication US20180327493A1.

B1: anti-CD84 antibody from the B1 hybridoma (antibody)
heavy: EVKLVESGGGLVQPGGSRKLSCAASGFTFSSFGMHWVRQAPEKGLEWVAYISSGSSTIYYADTVKGRFTISRDNPKNTLFLQMTSLRSEDTAMYYCARWGWTGTGLDYWGQGTTLTVSSFEAKTTPPSVYPLAPGSAAQTNSMVTLGCLVKGYFPEPVTVTWNSGSLSSGVHTFPAVLQSDLYTLSSSVTVPSSTWPSETVTCNVAHPASSTKVDKKIVPRDCGCKPCICTVPEVSSVFIFPPKPKDVLTITLTPKVTCVVVDISKDDPEVQFSWFVDDVEVHTAQTQPREEQFNSTFRSVSELPIMHQDWLNGKEFKCRVNSAAFPAPIEKTISKTKGRPKAPQVYTIPPPKEQMAKDKVSLTCMITDFFPEDITVEWQWNGQPAENYKNTQPIMDTDGSYFVYSKLNVQKSNWEAGNTFTCSVLHEGLHNHHTEKSLSHSPGK
light: DIVLTQSPALMAASPGEKVTITCSVSSSISSSNLHWYQQKSETSPKPWIYGTSNLASGVPVRFSGSGSGTSYSLTISSMEAEDAATYYCQQWSSYPFTFGSGTKLEIKRRTRADAAPTVSIFPPSSEQLTSGGASVVCFLNNFYPKDINVKWKIDGSERQNGVLNSWTDQDSKDSTYSMSSTLTLTKDEYERHNSYTCEATHKTSTSPIVKSFNRNEC
B2: anti-CD84 antibody from the B4 hybridoma (antibody)
heavy: EVKLVESGAELARPGASVKLSCKASGYTFTSYWMQWVKQRPGQGLEWIGAIYPGDGDTRYTQKFKGKATLTADKSSSTAYMQLSSLASEDSAVYYCARLLRTYWYFDVWGAGTTVTVSSFEAKTTAPSVYPLAPVCGDTTGSSVTLGCLVKGYFPEPVTLTWNSGSLSSGVHTFPAVLQSDLYTLSSSVTVTSSTWPSQSITCNVAHPASSTKVDKKIEPRGPTIKPCPPCKCPAPNLLGGPSVFIFPPKIKDVLMISLSPIVTCVVVDVSEDDPDVQISWFVNNVEVHTAQTQTHREDYNSTLRVVSALPIQHQDWMSGKEFKCKVNNKDLPAPIERTISKPKGSVRAPQVYVLPPPEEEMTKKQVTLTCMVTDFMPEDIYVEWTNNGKTELNYKNTEPVLDSDGSYFMYSKLRVEKKNWVERNSYSCSVVHEGLHNHHTTKSFSRTPGK
light: DIVLTQSHKFMSTSVGDRVSITCKASQDVGTAVAWYQQKPGQSPKLLIYWASTRHTGVPDRFTGSGSGTDFTLTISNVQSEDLADYFCQQYSSYPYTFGGGTKLELKRRTRADAAPTVSIFPPSSEQLTSGGASVVCFLNNFYPKDINVKWKIDGSERQNGVLNSWTDQDSKDSTYSMSSTLTLTKDEYERHNSYTCEATHKTSTSPIVKSFNRNEC

Molecular target: human CD84 on cells (primary CLL cells, Ramos cells, Daudi cells) (human), Q9UIB8
Test: cell-based or functional assay

Sequence of human CD84 on cells (primary CLL cells, Ramos cells, Daudi cells) (human), Q9UIB8 (Q9UIB8 22-345): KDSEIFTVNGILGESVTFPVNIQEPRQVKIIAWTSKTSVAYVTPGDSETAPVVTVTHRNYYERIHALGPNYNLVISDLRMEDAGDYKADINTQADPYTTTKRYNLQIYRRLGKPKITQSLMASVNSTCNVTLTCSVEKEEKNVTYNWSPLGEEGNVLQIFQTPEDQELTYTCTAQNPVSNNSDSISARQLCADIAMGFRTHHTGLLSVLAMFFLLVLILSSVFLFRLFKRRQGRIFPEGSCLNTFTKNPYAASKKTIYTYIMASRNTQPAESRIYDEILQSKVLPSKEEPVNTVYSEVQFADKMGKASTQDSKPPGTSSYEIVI

Row | Binder | % apoptosis, Ramos cells (Magic Red, FACS) | % apoptosis, purified CLL cells (Magic Red, FACS) | annexin positive total population of CLL cells (Annexin 7AAD staining)
1 | B1 | 45 % apoptosis | 73 % apoptosis | –
2 | B2 | 39 % apoptosis | 75 % apoptosis | 55.8%
